Laboratory results as given in patent publication US20180155693A1, “Method of Differentiating Stem Cells” (BioTime, Inc., priority 2008, published 2018).

What was measured:
[1] = tested on: human embryonic stem cells; assay: Notch signaling inhibition, C-peptide positive cells by immunohistochemistry; type: cell-based; details: added day 9-18 of differentiation; cells fixed at day 21; FIG. 7
Experimental: In order to increase the percentage of Pdx-1 and C-peptide producing cells, the cells from Example 1 were rinsed twice with PBS and then cultured in a culture medium (2% 8-27, 1×Glutamax, 1×NEAA, 1×13-mercaptoethanol in RPMI 1640 (RPMI)) comprising 50 ng/ml Activin A and 50 ng/ml BMP4 for 3 days. The medium was then changed to a medium comprising 50 ng/ml Activin A in RPMI and incubated for 3 days. The cells were then cultured in a medium comprising 3 μM RA, 50 ng/ml FGF2, 1 μM SANT-1 and 10 mM Nicotinamide in RPMI for 6 days with the medium changed every 2-3 days. Notch signaling in the cells was then inhibited by the addition of Gamma Secretase Inhibitor X (DAPT) from day 9-18 of differentiation.
Plate-based immunohistochemistry was performed using standard techniques. Cells were fixed in 4% PFA in PBS for 30 min, washed with PBS and incubated in blocking solution consisting of 10% FCS and 0.1% Triton X-100 in PBS for 1 hr. Cells were incubated overnight at 4 ° C. with the primary antibody diluted in blocking solution. Examples of primary antibodies and their dilutions used include: guinea pig anti-Pdx-1 (1:10,000), rabbit anti-C-peptide (Linea, 1:1,000), goat anti-Sox17 (R & D systems, 1:100), goat anti-FoxA2 (R & D systems 1:100) and mouse anti-Oct4 (Santacruz, 1:100). […]

[2] = cited from earlier work
[3] = tested on: ESI035, ESI049, ESI051 and HES-3; assay: Effect of early growth factors, Pdx-1 RT-PCR; type: cell-based, human; details: day 18; early factors per Table 2; compared to cells only treated with Activin A; FIG. 5
From the text: The effect of early differentiation factors was examined by differentiating cell lines ESI035, ESI049, ESI051 and HES-3 in 24-well plates in six varying cultures and harvesting them for analysis using immunohistochemistry and Quantitative RT-PCR analysis on day 18 and day 30 of differentiation. The culture medium (1×Glutamax, 1×NEAA, 1×13-mercaptoethanol in RPMI 1640 (RPMI)) was supplemented with other factors summarized in table 2 below. The medium was changed every 2-3 days.
As the effect of FGF2 as an early growth factor varied depending on the cell line used, no conclusion was derived with regard to the effect of an early dose of FGF2 on the expression of Pdx-1.
(§1) Total RNA from hESC at various stages of differentiation was isolated using the Qiagen RNeasy kit […] according to the manufacturer's instructions. RNA was quantified by UV absorption. 1 to 5 μg of RNA was DNase I treated and converted to cDNA using M-MuIV reverse transcriptase (New England Biolabs) using random hexamer primers according to the manufacturer's instructions. Quantitative PCR (RT-PCR) was performed according to the manufacturer's instructions using a BioRad iCycler with approximately 50 ng cDNA per reaction containing 250 nM of each primer and 1×SYBR green master mix (Bio-Rad) and analyzed by Bio-RAD thermocycler.

[4] = tested on: mix of cell lines, ESI017 and ESI035; assay: Definitive endoderm time course, real-time PCR of Sox17 and FoxA2; type: cell-based, human
Experimental: The effects of Activin A with and without BMP4 on the expression of markers of definitive endoderm were examined. Activin A and BMP4 were added to a mix of cell lines, ESI017 and ESI035, of Example 1 after the cells had been washed twice with PBS. Four groups of cells were then cultured in four different conditions:
1) 50 ng/ml Activin A and 50 ng/ml BMP4 in a culture medium (2% B-27, 1×Glutamax, 1×NEAA, 1×J3-mercaptoethanol in RPMI 1640 (RPMI)) for 3 days followed by treatment with Activin A (50 ng/ml) in RPMI.
2) 50 ng/ml Activin A and 50 ng/ml BMP4 in RPMI for about 6 hours followed by treatment with Activin A (50 ng/ml) in RPMI.
3) 50 ng/ml Activin A in RPMI.
4) 10% KOSR in RPMI (negative control).
The cells were cultured continuously and a sample harvested daily. The medium was changed every 2-3 days. Real-time PCR was performed as described in Example 9.
as §1, with “1 to 5 μg of RNA was DNase I treated and converted to cDNA using M-MuIV reverse transcriptase (New England Biolabs) using random hexamer primers according to the manufacturer's instructions.” left out

[5] = tested on: ESI035, ESI049 and ESI051; assay: Screen of maturation growth factors, immunohistochemistry for C-peptide and Pdx-1; type: cell-based, human; details: day 18
From the text: The effect of maturation growth factors was examined by differentiating cell lines ESI035, ESI049 and ES1051 from Example 1 in 96-well plates in two varying cultures and harvesting them for analysis using immunohistochemistry on day 18 of differentiation. The culture medium (1×Glutamax, 1×NEAA, 1×f3-mercaptoethanol in RPMI 1640 (RPMI)) were supplemented with other factors summarized in Table 4 below. The notable changes to the differentiation protocol used here compared to that used in Example 4 were the shortened period of endoderm induction and the addition of nicotinamide from day 6 of differentiation. The medium was changed every 2-3 days. A list of growth factors (G.F) were tested according to the protocol described in Table 4. […] There were added at two time points. […] None of the added growth factors had any consistent effect on cell viability, C-peptide expression and Pdx-1 expression. Plate-based immunohistochemistry was performed using standard techniques. Cells were fixed in 4% PFA in PBS for 30 min, washed with PBS and incubated in blocking solution consisting of 10% FCS and 0.1% Triton X-100 in PBS for 1 hr. Cells were incubated overnight at 4 ° C. with the primary antibody diluted in blocking solution. […]

## CC(C)C[C@H](NC(=O)[C@H](Cc1ccccc1)C[C@@H](O)[C@H](Cc1ccccc1)NC(=O)OC(C)(C)C)C(=O)N[C@@H](Cc1ccccc1)C(N)=O [Gamma Secretase Inhibitor X]
[1]
  Concentration resulting in a significant number of C-peptide positive cells: over 10 μM

## C-peptide
[2]
  half-life: about 30 minutes

## FGF2: member of the FGF family
[3]
  Pdx-1 expression (RT-PCR): did not result in the same effect on Pdx-1 expression in all four cell lines

B1: Activin A: protein of the TGF-superfamily (protein, UniProt P08476 311-426, looked up)
Inhibin beta A chain: GLECDGKVNICCKKQFFVSFKDIGWNDWIIAPSGYHANYCEGECPSHIAGTSGSSLSFHSTVINHYRMRGHSPFANLKSCCVPTKLRPMSMLYYDDGQNIIKKDIQNMIVEECGCS
modifications: Inhibin beta A chain
notes: protein of the TGF-superfamily
[4]; 50 ng/ml each in RPMI, daily samples, FIG. 2A
  expression of Sox17 mRNA: weak expression of Sox17 until day 6

B2: BMP4: secreted polypeptide belonging to the BMP subgroup of the TGF-superfamily (protein, UniProt P12644 293-408, looked up)
Bone morphogenetic protein 4: SPKHHSQRARKKNKNCRRHSLYVDFSDVGWNDWIVAPPGYQAFYCHGDCPFPLADHLNSTNHAIVQTLVNSVNSSIPKACCVPTELSAISMLYLDEYDKVVLKNYQEMVVEGCGCR
[4]; addition of 50 ng/ml BMP4 to Activin A, up to day 10, FIG. 2B
  FoxA2 expression: did not appear to greatly affect FoxA2 expression
[5]; BMP4 treated plates compared to plates not BMP4 treated
  Pdx-1 positive cells: more Pdx-1 positive cells
[5]; initially cultured in medium comprising BMP4 vs Activin only
  frequency of C-peptide positive cells: higher frequency of C-peptide positive cells
